Results on five substances are retold here after patent US20150258217A1, “Methods of Synthesizing and Using Peg-Like Fluorochromes” (THE GENERAL HOSPITAL CORPORATION, priority 2012, published 2015).

Series [1] in a line: Quantum yield determination. It counts as physicochemical. The following applies: for Quant. Yield: Table 5, in PBS. As for the experimental part:
Quantum yields were determined as described in Demas et al., “Measurement of photoluminescence quantum yields. Review”, Journal of Physical Chemistry 75, 991-1024 (1971), and Shao et al., “Facile Synthesis of Monofunctional Pentamethine Carbocyanine Fluorophores. Dyes and pigments: an international journal 90, 119-122 (2011). For IR-783 a reference quantum yield of 0.043 was used (see Li et al., “Synthesis and characterization of glucosamine-bound near-infrared probes for optical imaging”, Organic letters 8, 3623-3626, 2006); for fluorescein a reference quantum yield was […] (see Sjoback et al., “Absorption and florescence properties of fluorescein”, Spectrohimica Acta Part A 51, L7-L21, 1995). For Cy3 a reference quantum yield of 0.31 was used (Luminprobe Inc). For PN(783)'s, excitation was at 730 nm and emission spectra were recorded from 765 nm to 870 nm in PBS and maximum emission used. For PN(545)'s, excitation was at 515 nm and emission spectra were recorded from 538 nm to 700 nm in PBS and maximum emission used. For PN(497)'s, excitation was at 450 nm and emission spectra were recorded from 475 nm to 620 nm in PBS and maximum emission used. Absorbance of each probe was adjusted less than 0.1. Measurements were made in triplicate and are expressed as mean±SD.

Series [2] can be described thus: PN and peptide size (volume, diameter) by FPLC gel filtration (Superdex 200, globular protein standards). It counts as physicochemical. The following applies: for Molecular Volume FPLC: Table 3B, dipeptides; for Volume FPLC (diameter) / Volume FPLC: Table 5; for Volume FPLC (diameter): converted from globular protein equivalent MW; for Volume FPLC: globular protein equivalent molecular weight. Here is the method:
DOTA-Lys-Cys(IR783)-NH2 is then dissolved in DMSO, with 2 equivalents of an NHS ester of PEG and 6 equivalents of DIPEA. The reaction was at room temperature for 5 days. Product was purified by reverse phase HPLC separation. Product molecular weight was by matrix-assisted laser desorption ionization time-of-flight mass spectrometry (MALDI-TOF MS), with product molecular volume by size exclusion FPLC using globular protein standards (GE Healthcare life science AKTApurifier 10).
The mass spec of low molecular weights (MW) were obtained by MS-ESI Micromass (Waters) and high MW molecules were determined through MALDI-TOF analyses at the Tufts University Core Facility. RP-HPLC (Varian ProStar detector and delivery modules) employed an eluant A (0.1% TFA/water) and eluant B (0.1% TFA and 9.9% water in acetonitrile). Probe size (volume) was determined by FPLC using an ÄKTA Purifier 10 and Superdex™ 200 10/300GL column (GE Healthcare) with a running buffer of 0.05 M sodium phosphate, 0.15 M NaCl (0.1% Tween, pH 7.2) and flow rate of 0.8 ml/min. Standards (GE Healthcare) were Ferritin, Ribonuclease A, Carbonic Anhydrase, and Conalbumin and Blue Dextran 2000. To obtain probe volumes, Mr (apparent molecular weight based on size exclusion retention) was plotted versus Kav. Kav=(Ve−Vo)/(Vt−Vo), Vt=total volume, Ve=elution volume, Vo=void volume.
The column was calibrated with globular protein standards, and globular protein equivalent molecular weights (in kDa) were obtained (Table 5, column 5). These were converted to PN diameters in nm using the relationship: Radius in nm=[…] where M is the molecular weight of a globular protein expressed in daltons (see Erickson, “Size and Shape of Protein Molecules at the Nanometer Level Determined by Sedimentation, Gel Filtration, and Electron Microscopy”, Biological Procedures Online 2009, 11(1): 32-50). PN's diameters ranged from 3.0 to 11.8 nm (see FIG. 23a). Using PEG's of 5 kDa and 30 kDa, selected for their low polydispersity, PN's were synthesized using IR-783, Cy3 and Fluorescein (see FIG. 22a) and their sizes determined (see FIGS. 23a, 23b, 23c). With the 5 kDa PEG and these three fluorochromes (see the magenta chromatograms in FIGS. 22a, 23b and 23c) PN diameters were 4.3 nm. With the 30 kDa PEG and these three fluorochromes (blue chromatograms, 23a, 23b, 23c), PN diameters were now 10.0 nm. For reference, the diameter of a 67 kDa albumin determined by this method was 5.4 nm.
(Size exclusion chromatography separates by hydrodynamic size, large species first.)

The nature of series [3]: Blood half-life from serum fluorescence after tail injection. Format: in vivo. The note with it: mouse, IV; single decay constant fit. As for the experimental part: Using these procedures and PEG's of different molecular weights, PEG-like NIR fluorochromes of different molecular weights, volumes and pharmacokinetics were synthesized, with results summarized in Table 3B. Blood half-lives were determined by tail injection into mice and measuring serum fluorescence as a function of time. Data (fluorescence versus time) were fit to a single decay constant equation to yield blood half-lives. Human pharmacokinetics will be far slower than that of mice.

Series [4] has as its system HT-29, a human colon carcinoma cell line. Briefly: PN and peptide binding to cells (non-specific binding, FACS). Format: cell-based. The following applies: HT-29 cells, 30 min at 37° C., FACS. As for the experimental part: HT-29, a human colon carcinoma cell line, was from the American Tissue Culture Collection and maintained according to their instructions. Cells were seeded on 24-well plates at 5×10^5 cells/well in culture medium (RPMI 1640 with 10% FBS) the day before the assay. The day of assay, medium was removed, wells rinsed twice with DPBS (+Ca, +Mg), and 100 μl of 2% FBS/DPBS (+Ca, +Mg) added. 100 μL of Nanoprobes (2 μM) in DPBS (+Ca, +Mg) was added to cells and incubated for 30 min at 37° C. (Probe concentrations were determined spectrophotometrically (783 nm, extinction coefficient of 314 471 cm^−1 M^−1 for IR-783; 497 nm, extinction coefficient of 68 000 cm^−1 M^−1 for Fluorescein; 545 nm, extinction coefficient of 150 000 cm^−1 M^−1 for Cy3). Cells were detached by Trypsin/EDTA and assayed for fluorescence by FACS (BD 7 laser LSR2 for nanoprobes with IR-783; BD 3 laser LSR2 for nanoprobes with Fluorescein or Cy3).

The nature of series [5]: Circulating form of PN's (FPLC of serum after IV injection). It counts as in vivo, mouse. The following applies: nude mice, 20 nmoles. Here is the method:
20 nmoles of PN(783)4.3, PN(783)6.1, or PN(783)10.0 was injected (IV, tail vein) into nude mice (female; 25-30 g; 6-8 weeks old; nu/nu). At the indicated time, 50 μl of blood was collected with microhematocrit capillary tube (Fisher Scientific) from the tail, and transferred to Eppendorf microcentrifuge tube with anticoagulant (EDTA) coating (Fisher Scientific). Tubes were centrifuged (5000 rpm for 5 minutes), and the supernatant was injected to the FPLC, a ÄKTA Purifier 10 with Superdex™ 200 10/300GL column.

For series [6] the following is noted: literature/vendor reference value; cited from earlier work.
The nature of series [7]: Probe volume determination by FPLC (Superdex 75, globular protein standards). It counts as physicochemical. Here is the method:
Size (volume) was determined by FPLC using an ÄKTA Purifier 10 and Superdex™ 75 10/300 GL column (GE Healthcare Lifesciences) with a running buffer of 0.05 M sodium phosphate, 0.15 M NaCl (0.1% Tween, pH 7.2) and flow rate of 0.5 ml/min. The protein standards (Gel Filtration Calibration Kit LMW, code no. 28-4038-41, GE Healthcare) (0.3 mg/ml, mixture of Aprotinin, Ribonuclease A, Ovalbumin, and Conalbumin) and Blue Dextran 2000 were used. To obtain volumes, Mr (apparent molecular weight based on size exclusion retention) was plotted versus Kav. Kav=(Ve−Vo)/[…], Vt=total volume, Ve=elution volume, Vo=void volume.

In series [8] the test system is GFP expressing BT-20 breast carcinoma xenograft. As to the kind of experiment: Tumor surface fluorescence after peritumoral (DMR) or IV injection. Format: in vivo, mouse. The note with it: BT-20 tumors, 24 hours post injection. Here is the method:
Day 1, BT-20 cells were planted into 24-well plate at 750,000 cells/well in culture medium (EMEM with 10% FBS). Day 2, the old culture medium was replaced with new culture medium containing lenti-virus (1×10^8 particles/mL) and protamine sulphate (American Pharmaceutical Partners, Los Angelus, Calif.; 10 mg/mL; 1:500 of total volume of medium). Day 3, after 16 hours of transfection, medium was changed to the culture medium (EMEM with 10% FBS). 8 hours later, green cells could be seen via fluorescence microscope.
All animal experiments were approved by the Institutional Review Committee of Massachusetts General Hospital. Female nude mice (25-30 g; 6-8 weeks old; nu/nu; Cox 7, Massachusetts General Hospital, Boston, Mass.) were anesthetized with isoflurane/O2. Tumor cell implantation was performed both sides around the shoulder. 200 μl of cell suspension containing 10^6 cells in Matrigel (BD) was injected subcutaneously. Tumor cells were inoculated for 7 to 10 days.
The diffusion and molecular retention required of the DMR technique with a tumor bearing model were investigated. We peritumorally injected the RGD probe into an animal bearing two GFP expressing BT-20 breast carcinomas and monitored tumor GFP fluorescence and probe fluorescence as a function of time after injection. The non-integrin binding RAD probe was injected into a second animal also bearing two tumors. Overlaying purple probe fluorescence over green GFP yields white. […] Tumor surface fluorescence from both probes was quantified by the use of solution standards.
In FIG. 8a), two animals bearing two tumors were PT injected with the RGD probe or RAD probe as indicated and surface fluorescence images were obtained. […] In FIG. 8b), quantitation of tumor surface fluorescence after injections of the RGD or RAD probes as above. Surface fluorescence was quantified through the use of standard solutions.
To compare the DMR and intravenous (IV) methods, surface fluorescence images of tumor GFP and RGD probe fluorescence were obtained with skin removed, and overlays from the two signals obtained. With both DMR and IV administration, probe fluorescence extended beyond tumor GFP margins to a stromal area beyond the tumor. However, tumor fluorescence was far higher with DMR than IV injection, even though dose was far lower (50 pmoles/mouse by DMR versus 2000 pmoles/mouse by IV).
In FIG. 9a), skin covering GFP-BT-20 tumor was removed. Shown are visible GFP fluorescence, probe (CyAL5.5) fluorescence, and the overlay of GFP and probe fluorescence plus an X-ray image. Green GFP plus purple CyAL5.5 fluorescence yielded a white overlaid image. In FIG. 9b), with DMR or IV, probe fluorescence included a stromal zone of integrin binding surrounding the tumor was seen. […]

The nature of series [9]: Diffusion and elimination after intramuscular administration (surface fluorescence). Format: in vivo. The following applies: nude mouse, front extremity, 24 hours post injection. Here is the method: The diffusion and elimination of the non-integrin binding RAD probe after an intramuscular administration in the front extremity of a nude mouse was visualized. Using surface fluorescence, the probe rapidly diffused through the extremity and shoulder of the mouse, with vascular uptake and renal elimination evident from bladder fluorescence at 4 hours post injection.

Turning to “(DOTA)Lys(PEG2K)-Cys(IR-783) [PN(783)3.0]”, the “Quantum Yield” value in series [1] (Table 3B, IR-783 dipeptides) is given as 0.15. Further, the “Quant. Yield” value in series [1] is recorded as 0.13. In series [2], the “Molecular Volume FPLC” value is given as 11.2 kDa, the “Volume FPLC (diameter)” value turned out to be 3.0 nm and the “Volume FPLC” value worked out at 11.2 kDa. In [3], this substance registered a Serum half-life of 1.4 min. The “Cell NSB (percent of cells with fluorescence higher than unstained cell)” value in series [4] is on record as 50%.
For “(DOTA)Lys(PEG10K)-Cys(IR-783) [PN(783)6.1]”, in series [1] (Table 3B, IR-783 dipeptides), the “Quantum Yield” value was 0.17. For the same substance, the “Quant. Yield” value in series [1] is recorded as 0.16. In series [2], the “Molecular Volume FPLC” value amounted to 100.7 kDa, the “Volume FPLC (diameter)” value turned out to be 6.1 nm and the “Volume FPLC” value stood at 100.7 kDa. Moreover, in [4], the “Cell NSB (percent of cells with fluorescence higher than unstained cell)” value was 14%. Further, in series [5], the “circulating form after injection (FPLC elution vs pre-injection sample)” value was “identical for pre-injection samples and for sera from injected mice”.
With “(DOTA)Lys(PEG20K)-Cys(IR-783) [PN(783)8.4]”, in series [1] (Table 3B, IR-783 dipeptides), the “Quantum Yield” value amounted to 0.17. Further, the “Quant. Yield” value in series [1] came to 0.16. Also, in series [2], the “Molecular Volume FPLC” value was determined as 262.5 kDa, the “Volume FPLC (diameter)” value is 8.4 nm and the “Volume FPLC” value is 262.5 kDa. The same substance had a Serum half-life in series [3] of 17.6 min. In [4], the “Cell NSB (percent of cells with fluorescence higher than unstained cell)” value amounted to 14%.
As for Cy3, the reference quantum yield in series [6] is listed as 0.31.
As to “DOTA-Lys(CyAL5.5)-Lys(5 kDa PEG)- βAla -Lys(sPEG-RAD) [Compound 7b]”, the “Equiv. Vol.” value in series [7] (FPLC, globular protein equivalent volume) came out at 25 kDa. The “Molecular Volume” value in series [7] (Table 3A, tetrapeptides) is given as 20 kDa; in series [7] (Table 4, DMR probes), 20-30 kDa. Also, the “Quantum Yield” value in series [1] (Table 3A, CyAL5.5 tetrapeptides) amounted to 0.20; in series [1] (Table 4, DMR probes) it was 0.20. Moreover, the “tumor retention of probe fluorescence after peritumoral injection” value in series [8] is reported as “cleared by 24 hours post injection”. Moreover, in [9], the “clearance from intramuscular injection site” value is on record as “detectable fluorescence was not found”.
